Test results as given in patent publication US20200362300A1 (OSE IMMUNOTHERAPEUTICS, published 2020).

What was measured:
[1] = biological target: CD127-Fc (Sino Biological) (UniProt P16871); assay: SPR (Biacore), single cycle kinetics, CD127-Fc immobilised on CM5 chip, bivalent model
[2] = biological target: human CD127 on human blood T cells (human) (UniProt P16871); assay: flow cytometry on CD3+ cells of three human donors
[3] = biological target: T1, CD127-Fc (Sino Biological) (UniProt P16871 21-239, limits assumed); assay: SPR (Biacore), single cycle kinetics, CD127-Fc immobilised on CM5 chip, bivalent model
T1 construct: whole entry named; Immobilised by amine coupling on a CM5 chip; also called CD127 protein; not shown: Fc part of the bought fusion; not described
T1 sequence (looked up): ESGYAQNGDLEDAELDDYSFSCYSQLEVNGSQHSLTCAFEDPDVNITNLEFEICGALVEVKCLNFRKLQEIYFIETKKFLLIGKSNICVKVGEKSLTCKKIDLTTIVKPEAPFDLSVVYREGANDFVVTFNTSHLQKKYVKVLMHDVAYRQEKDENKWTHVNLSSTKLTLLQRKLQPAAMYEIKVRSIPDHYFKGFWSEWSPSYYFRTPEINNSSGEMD
Procedure: CD127-Fc was immobilized by amine coupling on a CM5 chip. The carboxylic groups were esterified by injection of an NHS/EDC mix for 7 min. The CD127-Fc proteins diluted to 20 μg/ml in Na acetate buffer pH 4.6 were injected until an SPR signal of 500 RU was obtained. Free reactive sites were inactivated by injection of 1 M ethanolamine pH8.5 for 10 min.
Antibodies were analyzed in Single Cycle Kinetics (SCK) on CD127 to determine kinetic and affinity parameters. The surface functionalized with CD127-Fc was regenerated between each cycle by injection of a 4 M MgCl 2 solution for 30 seconds.

Molecule: eBIORDR5 (CD127 Monoclonal Antibody, eBioscience from Invitrogen/Thermo Fisher Scientific catalog # 14-1278-82)
- Kd [1]: 0.0683 nM
- mean fluorescence intensity [2]: 4140 MFI

B1: Effi3-VH3VL3 (antibody, V domains shown)
VH: AVQLVESGGGLVQPGGSLKITCAASGFTFTNAAMYWVRQAPGKGLEWVARIRTKANNYATYYADSVKGRFTISRDDSKSTVYLQMDSVKTEDTATYYCIVVVLTTTRDYFDYWGQGVLVTVSS
VL: DIVLTQSPSSLPVTPGEPASISCRSSQSLLTVKGITSLYWFLQKPGQSPKLLIYRMSNRDSGVPDRFSGSGSETDFTLKISRVEAEDVGTYYCAQFLEYPHTFGAGTKLELKR
notes: also called Effi3-VH3L3; Effi3 clone VH3VL3
- Kd [3]: 1.62 nM
